{"source": "paper doi:10.1101/153403", "key": {"[1]": {"target": "myostatin pro-domain of the HRV-3C cleaved pro-myostatin complex (from proMSTN-3C) (human)", "test": "SEC-MALS"}, "[2]": {"target": "mature myostatin growth factor dimer (from HRV-3C cleaved proMSTN-3C) (human) (UniProt O14793)", "test": "SEC-MALS"}}, "data": [{"substance": "mature myostatin growth factor dimer (from HRV-3C cleaved proMSTN-3C) (from UniProt O14793 267-375) (ligand)", "values": [{"measurement": "stoichiometry N (pro-domains per mature GF dimer)", "setting": "[1]", "value": 2}, {"measurement": "stoichiometry N", "setting": "[2]", "value": 2}]}]}
